Data taken from patent US20020053092.

Test system: MeCP2 (Homo sapiens)
Test: cell_activity
Conditions: 5mC at CpG (SssI); S2 cells with Sp1; methylated promoter alone repressed 3-fold; binding inferred from repression

With cyclin A1 promoter, SssI methylated the activity (fold repression) was 12.
